Assay results published in article PMC11431768, “Mechanistic Insights into Substrate Recognition of Human Nucleoside Diphosphate Kinase C Based on Nucleotide-Induced Structural Changes” (International Journal of Molecular Sciences, 2024).

Experiments:
[1] = biological target: the molecule itself; assay: SEC-MALS; SEC-RI-MALS; Superdex 200 5/150; samples at 60 to 600 µM; gel filtration buffer (20 mM Tris-HCl, 300 mM NaCl, 5 mM MgCl2, DTT); 0.3 mL/min; RI at 25 °C
[2] = biological target: the molecule itself; assay: mass photometry; His-tagged NDPK-C directly after affinity purification

Protein | stoichiometry N [1] | stoichiometry N [2]
human nucleoside diphosphate kinase C, N-terminally truncated (residues Thr18–Glu169), untagged (enzyme, UniProt Q13232 18-169, looked up, human NDPK-C (nme3 gene product), residues Thr18-Glu169 of UniProt Q13232; The forward primer puts a start codon (Met) before Thr18; The results speak of a 156-residue subunit, while Thr18-Glu169 is 152 residues; The extra residues are probably what TEV cleavage leaves of the tag plus the Met; also called NDPK-C; NDPK isoform C; source: E. coli BL21 (DE3), purified (HisTrap, SEC, TEV cleavage, …)) TGAHERTFLAVKPDGVQRRLVGEIVRRFERKGFKLVALKLVQASEELLREHYAELRERPFYGRLVKYMASGPVVAMVWQGLDVVRTSRALIGATNPADAPPGTIRGDFCIEVGKNLIHGSDSVESARREIALWFRADELLCWEDSAGHWLYE | 6 | 
His-tagged human NDPK-C (residues Thr18–Glu169) (enzyme, UniProt Q13232 18-169, looked up, human NDPK-C (nme3 gene product), residues Thr18-Glu169 of UniProt Q13232; the expression plasmid encodes a 173 amino acid polypeptide including the N-terminal TEV-cleavable His-tag; 173 residues in all; also called His-NDPK-C; His-tagged NDPK-C; not shown: His6, N-terminal, kept) TGAHERTFLAVKPDGVQRRLVGEIVRRFERKGFKLVALKLVQASEELLREHYAELRERPFYGRLVKYMASGPVVAMVWQGLDVVRTSRALIGATNPADAPPGTIRGDFCIEVGKNLIHGSDSVESARREIALWFRADELLCWEDSAGHWLYE |  | 6
